Our source for the MFI and Difference % (iBead against regular bead MFI) values is patent publication US10800847.

Assay [1] concerns the target Albumin (negative control beads) (human or bovine). Briefly: Luminex, iBeads (#6), 1:4.
Assay [2] has as its target HLA-Cw*0102 (Cw1) (human). Description: Luminex, iBeads (#6), 1:4.
In assay [3] the target is HLA-Cw*0202 (Cw2) (human). Description: Luminex, iBeads (#6), 1:4.
Assay [4] deals with HLA-Cw*0302 (Cw10) (human). Description: Luminex, iBeads (#6), 1:4.
The target in assay [5] is HLA-Cw*0303 (Cw9) (human). Briefly: Luminex, iBeads (#6), 1:4.
For assay [6], the target named is HLA-Cw*0304 (Cw10) (human). Briefly: Luminex, iBeads (#6), 1:4.
The target of assay [7] is HLA-Cw*0401 (Cw4) (human). Description: Luminex, iBeads (#6), 1:4.
Assay [8] addresses HLA-Cw*0501 (Cw5) (human). Briefly: Luminex, iBeads (#6), 1:4.
Assay [9] addresses HLA-Cw*0602 (Cw6) (human). Briefly: Luminex, iBeads (#6), 1:4.
Assay [10] addresses HLA-Cw*0702 (Cw7) (human). Description: Luminex, iBeads (#6), 1:4.
Assay [11] concerns the target HLA-Cw*1203 (Cw12) (human). Description: Luminex, iBeads (#6), 1:4.
Assay [12] addresses HLA-Cw*1502 (Cw15) (human). Description: Luminex, iBeads (#6), 1:4.
In assay [13] the target is HLA-Cw*1601 (Cw16) (human). Description: Luminex, iBeads (#6), 1:4.
For assay [14], the target named is HLA-Cw*1701 (Cw17) (human). Briefly: Luminex, iBeads (#6), 1:4.
Assay [15] deals with HLA-A*2902 (A29) single antigen on beads (human). Briefly: Luminex iBeads (#6), IVIg 1:4.
Assay [16] addresses HLA-A*3001 (A30) single antigen on beads (human). Briefly: Luminex iBeads (#6), IVIg 1:4.
The target in assay [17] is HLA-A*3002 (A30) single antigen on beads (human). Briefly: Luminex iBeads (#6), IVIg 1:4.
The target in assay [18] is HLA-A*3101 (A31) single antigen on beads (human). Briefly: Luminex iBeads (#6), IVIg 1:4.
In assay [19] the target is HLA-A*3201 (A32) single antigen on beads (human). Description: Luminex iBeads (#6), IVIg 1:4.
Assay [20] has as its target HLA-A*3301 (A33) single antigen on beads (human). Description: Luminex iBeads (#6), IVIg 1:4.
In assay [21] the target is HLA-A*3303 (A33) single antigen on beads (human). Description: Luminex iBeads (#6), IVIg 1:4.
For assay [22], the target named is HLA-A*3402 (A34) single antigen on beads (human). Briefly: Luminex iBeads (#6), IVIg 1:4.
The target in assay [23] is HLA-A*3601 (A36) single antigen on beads (human). Briefly: Luminex iBeads (#6), IVIg 1:4.
For assay [24], the target named is HLA-A*4301 (A43) single antigen on beads (human). Description: Luminex iBeads (#6), IVIg 1:4.
In assay [25] the target is HLA-A*6601 (A66) single antigen on beads (human). Description: Luminex iBeads (#6), IVIg 1:4.
Assay [26] concerns the target HLA-A*6602 (A66) single antigen on beads (human). Description: Luminex iBeads (#6), IVIg 1:4.
Assay [27] has as its target HLA-A*6801 (A68) single antigen on beads (human). Description: Luminex iBeads (#6), IVIg 1:4.
In another assay the target is HLA-B*8201 (B82) (human). Briefly: Luminex, regular beads (#7), 1:4.
The target in assay [28] is HLA-Cw*0102 (Cw1) (human). Description: Luminex, regular beads (#7), 1:4.
In assay [29] the target is HLA-Cw*0202 (Cw2) (human). Description: Luminex, regular beads (#7), 1:4.
For assay [30], the target named is HLA-Cw*0302 (Cw10) (human). Briefly: Luminex, regular beads (#7), 1:4.
Assay [31] addresses HLA-Cw*0303 (Cw9) (human). Description: Luminex, regular beads (#7), 1:4.
The target of assay [32] is HLA-Cw*0304 (Cw10) (human). Briefly: Luminex, regular beads (#7), 1:4.
For assay [33], the target named is HLA-Cw*0401 (Cw4) (human). Description: Luminex, regular beads (#7), 1:4.
The target in assay [34] is HLA-Cw*0602 (Cw6) (human). Description: Luminex, regular beads (#7), 1:4.
Assay [35] has as its target HLA-Cw*0702 (Cw7) (human). Briefly: Luminex, regular beads (#7), 1:4.
Assay [36] has as its target HLA-Cw*1203 (Cw12) (human). Description: Luminex, regular beads (#7), 1:4.
Assay [37] concerns the target HLA-Cw*1402 (Cw14) (human). Description: Luminex, regular beads (#7), 1:4.
Assay [38] concerns the target HLA-Cw*1502 (Cw15) (human). Description: Luminex, regular beads (#7), 1:4.
The target of assay [39] is HLA-Cw*1601 (Cw16) (human). Briefly: Luminex, regular beads (#7), 1:4.
The target of assay [40] is HLA-Cw*1701 (Cw17) (human). Description: Luminex, regular beads (#7), 1:4.
Assay [41] deals with HLA-Cw*1802 (Cw18) (human). Briefly: Luminex, regular beads (#7), 1:4.
Another assay addresses HLA-B*1503 (B72) (human). Description: Luminex iBeads (#6), IVIg diluted 1:4.
In assay [42] the target is Albumin on negative control beads (serum albumin, HSA/BSA) (human or bovine). Briefly: Luminex single antigen beads, iBeads (#6), 1:8.
Assay [43] has as its target HLA-A*0301 (A3) on single antigen beads (human) (UniProt P04439). Briefly: Luminex single antigen beads, iBeads (#6), 1:8.
The target of assay [44] is Albumin on negative control beads (serum albumin, HSA/BSA) (human or bovine). Briefly: Luminex single antigen beads, regular beads (#7), 1:8.
The target in assay [45] is HLA-A*0301 (A3) on single antigen beads (human) (UniProt P04439). The description is as above.
Assay [46] deals with HLA-B*4501 (B45) single antigen on Luminex beads (human). Briefly: Luminex single antigen, iBead vs regular bead, IVIg 1:8.

In the case of “IVIg Sandoglobulin (Novartis, Basel, Switzerland) (antibody)”, the MFI in assay [1] was found to be 667 MFI; in assay [2] it was 511 MFI; in [3] it was 719 MFI; in [4] it was 522 MFI; in assay [5], 500 MFI; in assay [6] it was 520 MFI. For the same substance, the MFI in assay [7] was found to be 601 MFI; in assay [8], 710 MFI; in assay [9], 627 MFI; in assay [10] it was 746 MFI; in [11], 636 MFI; in assay [12], 458 MFI. Moreover, the MFI in assay [13] came out at 613 MFI; in assay [14], 1050 MFI; in assay [15] it was 932 MFI; in assay [16], 540 MFI; in [17], 526 MFI; in assay [18], 295 MFI. The MFI in [19] stood at 769 MFI; in assay [20] it was 684 MFI; in [21] it was 439 MFI; in [22], 177 MFI; in [23], 636 MFI; in [24], 949 MFI. Moreover, the MFI in assay [25] amounted to 783 MFI; in assay [26] it was 768 MFI; in assay [27], 307 MFI; in the assay with HLA-B*8201 (B82) (human), 639 MFI; in [28] it was 998 MFI; in assay [29], 1280 MFI. The MFI in [30] was determined as 1024 MFI; in assay [31], 703 MFI; in [32], 844 MFI; in assay [33], 1570 MFI; in assay [34], 1560 MFI; in assay [35] it was 1970 MFI. Further, the MFI in assay [36] was found to be 985 MFI; in [37] it was 991 MFI; in assay [38], 778 MFI; in assay [39], 973 MFI; in assay [40], 1490 MFI; in assay [41], 1550 MFI. Besides, in the assay with HLA-B*1503 (B72) (human), the MFI turned out to be 0 MFI.
Turning to “Octagam (IVIg, Octapharma, Lachen, Switzerland) (antibody)”, the MFI in [42] was found to be 1670 MFI; in assay [43] it was 0 MFI; in assay [44] it was 2340 MFI; in assay [45], 515 MFI. In [46], the Difference % (iBead against regular bead MFI) was -68%.
